Laboratory results taken from patent US20220396635A1 (UNIVERSIT T STUTTGART, published 2022).

B1: scDb/scFv-Fc (1-2)+3, trivalent trispecific anti-EGFRxanti-HER3×anti-CD3 (other)
chain 1: QVQLQQSGPGLVKPSQTLSLTCAISGDSVSSNRAAWNWIRQSPSRGLEWLGRTYYRSKWYNDYAQSLKSRITINPDTPKNQFSLQLNSVTPEDTAVYYCARDGQLGLDALDIWGQGTMVTVSSGGGGSDIQMTQSPSSLSASVGDRVTITCRASQDIRNYLNWYQQKPGKAPKLLIYYTSRLHSGVPSRFSGSGSGTDFTFTISSLQPEDIATYYCQQGNTLPWTFGQGTKLEIKRGGGGSGGGGSGGGGSQVQLVQSGAEVKKPGSSVKVSCKASGGTFSGYTMNWVRQAPGQGLEWMGLINPYKGVSTYNGKFKDRVTITADKSTSTAYMELSSLRSEDTAVYYCARSGYYGDSDWYFDVWGQGTLVTVSSGGGGSQAGLTQPPAVSVAPGQTASITCGRDNIGSRSVHWYQQKPGQAPVLVVYDDSDRPAGIPERFSGSNYENTATLTISRVEAGDEADYYCQVWGITSDHVVFGGGTKLTVLAAADKTHTCPPCPAPPVAGPSVFLFPPKPKDTLMISRTPEVTCVVVDVSHEDPEVKFNWYVDGVEVHNAKTKPREEQYNSTYRVVSVLTVLHQDWLNGKEYKCKVSNKGLPSSIEKTISKAKGQPREPQVCTLPPSRDELTKNQVSLSCAVKGFYPSDIAVEWESNGQPENNYKTTPPVLDSDGSFFLVSKLTVDKSRWQQGNVFSCSVMHEALHNHYTQKSLSLSPGK
chain 2: EVQLVESGGGLVQPGGSLRLSCAASGFSLTNYGVHWVRQAPGKGLEWLGVIWSGGNTDYNTPFTSRFTISRDNSKNTLYLQMNSLRAEDTAVYYCARALTYYDYEFAYWGQGTTVTVSSGGGGSGGGGSGGGGSDIQLTQSPSFLSASVGDRVTITCRASQSIGTNIHWYQQKPGKAPKLLIKYASESISGVPSRFSGSGSGTEFTLTISSLQPEDFATYYCQQNNNWPTTFGAGTKLEIKRAAADKTHTCPPCPAPPVAGPSVFLFPPKPKDTLMISRTPEVTCVVVDVSHEDPEVKFNWYVDGVEVHNAKTKPREEQYNSTYRVVSVLTVLHQDWLNGKEYKCKVSNKGLPSSIEKTISKAKGQPREPQVYTLPPCRDELTKNQVSLWCLVKGFYPSDIAVEWESNGQPENNYKTTPPVLDSDGSFFLYSKLTVDKSRWQQGNVFSCSVMHEALHNHYTQKSLSLSPGK
notes: Trispecific antibody: 1 = HER3 (3-43), 2 = CD3 (huU3), 3 = EGFR (hu225); also called scDb3-43xhuU3-Fc(hole)Δab + scFvhu225-Fc(knob)Δab
B2: scDb/scFv-Fc (2-1)+3, trivalent trispecific anti-EGFRxanti-HER3×anti-CD3 (other)
chain 1: QVQLVQSGAEVKKPGSSVKVSCKASGGTFSGYTMNWVRQAPGQGLEWMGLINPYKGVSTYNGKFKDRVTITADKSTSTAYMELSSLRSEDTAVYYCARSGYYGDSDWYFDVWGQGTLVTVSSGGGGSQAGLTQPPAVSVAPGQTASITCGRDNIGSRSVHWYQQKPGQAPVLVVYDDSDRPAGIPERFSGSNYENTATLTISRVEAGDEADYYCQVWGITSDHVVFGGGTKLTVLGGGGSGGGGSGGGGSQVQLQQSGPGLVKPSQTLSLTCAISGDSVSSNRAAWNWIRQSPSRGLEWLGRTYYRSKWYNDYAQSLKSRITINPDTPKNQFSLQLNSVTPEDTAVYYCARDGQLGLDALDIWGQGTMVTVSSGGGGSDIQMTQSPSSLSASVGDRVTITCRASQDIRNYLNWYQQKPGKAPKLLIYYTSRLHSGVPSRFSGSGSGTDFTFTISSLQPEDIATYYCQQGNTLPWTFGQGTKLEIKRAAADKTHTCPPCPAPPVAGPSVFLFPPKPKDTLMISRTPEVTCVVVDVSHEDPEVKFNWYVDGVEVHNAKTKPREEQYNSTYRVVSVLTVLHQDWLNGKEYKCKVSNKGLPSSIEKTISKAKGQPREPQVCTLPPSRDELTKNQVSLSCAVKGFYPSDIAVEWESNGQPENNYKTTPPVLDSDGSFFLVSKLTVDKSRWQQGNVFSCSVMHEALHNHYTQKSLSLSPGK
chain 2: B1 chain 2
notes: Trispecific antibody: 1 = HER3, 2 = CD3, 3 = EGFR; also called scDbhuU3x3-43-Fc(hole)Δab + scFvhu225-Fc(knob)Δab
B3: scDb/Fab-Fc (1-2)+3, trivalent trispecific anti-EGFRxanti-HER3×anti-CD3 (other)
chain: B1 chain 1
heavy: EVQLVESGGGLVQPGGSLRLSCAASGFSLTNYGVHWVRQAPGKGLEWLGVIWSGGNTDYNTPFTSRFTISRDNSKNTLYLQMNSLRAEDTAVYYCARALTYYDYEFAYWGQGTTVTVSSASTKGPSVFPLAPSSKSTSGGTAALGCLVKDYFPEPVTVSWNSGALTSGVHTFPAVLQSSGLYSLSSVVTVPSSSLGTQTYICNVNHKPSNTKVDKKVEPKSCGTDKTHTCPPCPAPPVAGPSVFLFPPKPKDTLMISRTPEVTCVVVDVSHEDPEVKFNWYVDGVEVHNAKTKPREEQYNSTYRVVSVLTVLHQDWLNGKEYKCKVSNKGLPSSIEKTISKAKGQPREPQVYTLPPCRDELTKNQVSLWCLVKGFYPSDIAVEWESNGQPENNYKTTPPVLDSDGSFFLYSKLTVDKSRWQQGNVFSCSVMHEALHNHYTQKSLSLSPGK
light: DIQLTQSPSFLSASVGDRVTITCRASQSIGTNIHWYQQKPGKAPKLLIKYASESISGVPSRFSGSGSGTEFTLTISSLQPEDFATYYCQQNNNWPTTFGAGTKLEIKRTVAAPSVFIFPPSDEQLKSGTASVVCLLNNFYPREAKVQWKVDNALQSGNSQESVTEQDSKDSTYSLSSTLTLSKADYEKHKVYACEVTHQGLSSPVTKSFNRGEC
notes: Trispecific antibody: 1 = HER3, 2 = CD3, 3 = EGFR; also called scDb3-43xhuU3-Fc(hole)Δab + Fdhu225-Fc(knob)Δab + VLhu225-CLκ
B4: scDb/Fab-Fc (2-1)+3, trivalent trispecific anti-EGFRxanti-HER3×anti-CD3 (other)
chain: B2 chain 1
heavy: B3 heavy
light: B3 light
notes: Trispecific antibody: 1 = HER3, 2 = CD3, 3 = EGFR; also called scDbhuU3x3-43-Fc(hole)Δab + Fdhu225-Fc(knob)Δab + VLhu225-CLκ
B5: scDb/scFv-Fc (1-3)+2, trivalent trispecific anti-EGFRxanti-HER3×anti-CD3 (other)
chain 1: EVQLVESGGGLVQPGGSLRLSCAASGFSLTNYGVHWVRQAPGKGLEWLGVIWSGGNTDYNTPFTSRFTISRDNSKNTLYLQMNSLRAEDTAVYYCARALTYYDYEFAYWGQGTTVTVSSGGGGSQAGLTQPPAVSVAPGQTASITCGRDNIGSRSVHWYQQKPGQAPVLVVYDDSDRPAGIPERFSGSNYENTATLTISRVEAGDEADYYCQVWGITSDHVVFGGGTKLTVLGGGGSGGGGSGGGGSQVQLQQSGPGLVKPSQTLSLTCAISGDSVSSNRAAWNWIRQSPSRGLEWLGRTYYRSKWYNDYAQSLKSRITINPDTPKNQFSLQLNSVTPEDTAVYYCARDGQLGLDALDIWGQGTMVTVSSGGGGSDIQLTQSPSFLSASVGDRVTITCRASQSIGTNIHWYQQKPGKAPKLLIKYASESISGVPSRFSGSGSGTEFTLTISSLQPEDFATYYCQQNNNWPTTFGAGTKLEIKRAAADKTHTCPPCPAPPVAGPSVFLFPPKPKDTLMISRTPEVTCVVVDVSHEDPEVKFNWYVDGVEVHNAKTKPREEQYNSTYRVVSVLTVLHQDWLNGKEYKCKVSNKGLPSSIEKTISKAKGQPREPQVCTLPPSRDELTKNQVSLSCAVKGFYPSDIAVEWESNGQPENNYKTTPPVLDSDGSFFLVSKLTVDKSRWQQGNVFSCSVMHEALHNHYTQKSLSLSPGK
chain 2: DIQMTQSPSSLSASVGDRVTITCRASQDIRNYLNWYQQKPGKAPKLLIYYTSRLHSGVPSRFSGSGSGTDFTFTISSLQPEDIATYYCQQGNTLPWTFGQGTKLEIKRGGGGSGGGGSGGGGSQVQLVQSGAEVKKPGSSVKVSCKASGGTFSGYTMNWVRQAPGQGLEWMGLINPYKGVSTYNGKFKDRVTITADKSTSTAYMELSSLRSEDTAVYYCARSGYYGDSDWYFDVWGQGTLVTVSSAAADKTHTCPPCPAPPVAGPSVFLFPPKPKDTLMISRTPEVTCVVVDVSHEDPEVKFNWYVDGVEVHNAKTKPREEQYNSTYRVVSVLTVLHQDWLNGKEYKCKVSNKGLPSSIEKTISKAKGQPREPQVYTLPPCRDELTKNQVSLWCLVKGFYPSDIAVEWESNGQPENNYKTTPPVLDSDGSFFLYSKLTVDKSRWQQGNVFSCSVMHEALHNHYTQKSLSLSPGK
notes: Trispecific antibody: 1 = HER3, 2 = CD3, 3 = EGFR; also called scDbhu225x3-43-Fc(hole)Δab + scFvhuU3-Fc(knob)Δab
B6: scDb/Fab-Fc (1-3)+2, trivalent trispecific anti-EGFRxanti-HER3×anti-CD3 (other)
chain: B5 chain 1
heavy: QVQLVQSGAEVKKPGSSVKVSCKASGGTFSGYTMNWVRQAPGQGLEWMGLINPYKGVSTYNGKFKDRVTITADKSTSTAYMELSSLRSEDTAVYYCARSGYYGDSDWYFDVWGQGTLVTVSSASTKGPSVFPLAPSSKSTSGGTAALGCLVKDYFPEPVTVSWNSGALTSGVHTFPAVLQSSGLYSLSSVVTVPSSSLGTQTYICNVNHKPSNTKVDKKVEPKSCDKTHTCPPCPAPPVAGPSVFLFPPKPKDTLMISRTPEVTCVVVDVSHEDPEVKFNWYVDGVEVHNAKTKPREEQYNSTYRVVSVLTVLHQDWLNGKEYKCKVSNKGLPSSIEKTISKAKGQPREPQVYTLPPCRDELTKNQVSLWCLVKGFYPSDIAVEWESNGQPENNYKTTPPVLDSDGSFFLYSKLTVDKSRWQQGNVFSCSVMHEALHNHYTQKSLSLSPGK
light: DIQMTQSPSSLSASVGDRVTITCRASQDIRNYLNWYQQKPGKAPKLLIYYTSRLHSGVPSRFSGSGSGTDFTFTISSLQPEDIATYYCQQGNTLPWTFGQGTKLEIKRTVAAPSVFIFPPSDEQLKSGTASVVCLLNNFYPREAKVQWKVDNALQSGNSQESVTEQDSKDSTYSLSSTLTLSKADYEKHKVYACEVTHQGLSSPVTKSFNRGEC
notes: Trispecific antibody: 1 = HER3, 2 = CD3, 3 = EGFR; also called scDbhu225x3-43-Fc(hole)Δab + FdhuU3-Fc(knob)Δab + VLhuU3-CLK

What follows are binders tested against T1, CD3 (UniProt P07766 23-207) (assay: flow cytometry, serial dilution on Jurkat cells (CD3-expressing), PE anti-human Fc detection, n = 1).
T1 construct: whole, on cells; on cells it stands in the TCR/CD3 complex; also called CD3 on Jurkat cells
Procedure: Trivalent, trispecific antibodies were analyzed for their binding to tumor cell lines with different EGFR- and HER3-expression levels (Table 14) by flow cytometry. Adherent cells were washed with PBS and shortly trypsinized at 37° C. Trypsin was quenched with FCS-containing medium and removed by centrifugation (500×g, 5 min.). 1×10⁵ target cells/well (FaDu, LIM1215, SKBR-3, T-47-D, MCF-7 and Jurkat cells) were incubated with a serial dilution of trivalent, trispecific antibodies for 1 h at 4° C. After removing excess of recombinant protein by washing with PBA (PBS, 2% FBS, and 0.02% sodium azide), bound protein was detected using PE-conjugated anti-human Fc mAb (Jackson ImmunoResearch Laboratories Inc). Fluorescence was measured using MACSquant VYB (Miltenyi Biotec) and data were analyzed using FlowJo (Tree Star). Relative median fluorescence intensities (MFI) were calculated as followed: relative MFI=((MFIₛₐₘₚₗₑ-(MFIdetection-MFIcells))/MFIcells).
In the case of B1, the EC50 is reported as 1.6 nM. B2 was tested, and the EC50 was 2.6 nM. Binder B3 has an EC50 of 0.8 nM. In the case of B4, the EC50 is reported as 1.1 nM. With B5 the EC50 was 0.6 nM. With B6 the EC50 was 0.8 nM.
